Tests used:
[1] = system: transgenic rice seedlings; test: glyphosate resistance of the EPSPS mutant in transgenic rice plants sprayed with glyphosate (Example 8, Table 1); assay type: in vivo, rice (Nipponbare); details: for survival of transformed rice seedlings (in words): 2× and 5× glyphosate dosages; for glyphosate resistance of transformed rice seedlings (in words): glyphosate sprayed at the 1× dosage
From the text: A method for detecting the glyphosate resistance of the G1 soybean EPSPS mutant (SEQ ID NO: 20), G2 soybean EPSPS mutant (SEQ ID NO: 22) and G3 soybean EPSPS mutant (SEQ ID NO: 24) provided in Example 7, the R1 rice EPSPS mutant (SEQ ID NO: 4) provided in Example 5, and the Z1 maize EPSPS mutant (SEQ ID NO: 12) provided in Example 6 in the transgenic rice is as follows:
The plasmids (containing the EPSPS mutant gene) of the monoclonal resistant bacteria of pADV5-EPSPS in Examples 1-7 were extracted by a conventional method, followed by double enzyme digestion by Pac1 and BstEII, the small fragments were collected, and then the small fragments were ligated, using T4 DNA ligase, to the pGVP1 vectors that had undergone the same double enzyme digestion, to obtain a pGVP1-EPSPS vector having a structure as shown in FIG. 8.
In the present example, the glyphosate resistance of the EPSPS mutant in transgenic rice plants were verified. An experiment method is as follows:
The transgenic rice seedlings transplanted were uniformly arranged in a same experiment area (preventing leaves from overlapping). The areas occupied by the experiment groups and the control group were calculated, and according to the areas, glyphosate was sprayed at a 1× dosage of 1060 g/hectare (0.106 g/m^2). 2× dosage was 2120 g/hectare, 5× dosage was 5300 g/hectare, and 20× dosage was 21200 g/hectare.
Commercially available Roundup® 41% ammonium glyphosate was used. Roundup® ammonium glyphosate with corresponding volumes was taken according to the above sprayed concentrations, then diluted with 20 times of volume of water, and then uniformly sprayed on the plants in the experiment groups and the control group. After leaf surfaces were dry, the plants were moved into greenhouse or outdoor to cultivate.
After the glyphosate was sprayed at the 1× dosage, growth states of the plants in each group were observed and recorded on a 10th day, and glyphosate was sprayed to the survived plants at the 2× dosage. The growth states of the plants in each group were observed and recorded 10 days later, and glyphosate was sprayed to the survived plants at the 5× dosage. The growth states of the plants in each group were observed and recorded 10 days later, and glyphosate was sprayed to the survived plants at the 20× dosage. The growth states of the plants in each group were observed and recorded 10 days later, and results are shown in Table 1, wherein corresponding numbers of plants denoted by −, +, ++ and +++ are listed, and “%++&+++” is percentage of plant having medium and high glyphosate resistance to the total number of plants observed.

double knockout E. coli = test: growth of E. coli transformed by genes encoding maize EPSPS (wild type and mutants) in culture media containing different glyphosate concentrations (Example 6, FIG. 2); assay type: cell-based
From the text: E. coli transformed by the gene (SEQ ID NO: 9, which encoded the wild-type maize EPSPS represented by SEQ ID NO: 10) encoding the wild-type maize EPSPS was taken as a control group.
E. coli transformed by the gene (SEQ ID NO: 11, which encoded SEQ ID NO: 12) encoding the maize EPSPS mutant I that contained only a single mutation K94(85)I, was taken as Experiment Group 1.
E. coli transformed by the gene (with a nucleotide sequence represented by SEQ ID NO: 13, and the amino acid sequence of the encoded three-mutation maize EPSPS mutant is represented by SEQ ID NO: 14) encoding the maize EPSPS mutant that contained only three mutations G105(96)A, P110(101)S and K207(194)R but no mutation K94(85)I, was taken as Experiment Group 2.
E. coli transformed by the gene (SEQ ID NO: 15) encoding the maize EPSPS mutant (containing four mutations: K94(85)I, G105(96)A, P110(101)S and K207(194)R) provided in Example 3 was taken as Experiment Group 3.
The glyphosate resistance of the gene encoding the maize EPSPS mutant and the maize EPSPS mutant encoded thereby in the E. coli was verified by detecting the growth situation of the transformed E. coli in culture media containing different glyphosate concentrations (0, 1, 20, 50 mM). In the above, the E. coli used is double knockout E. coli.
Results are as shown in FIG. 2 (wherein Z0 represents a control group, Z1 represents Experiment Group 1, Z2 represents Experiment Group 2, and Z3 represents Experiment Group 3).

[2] = 1X dosage (1060 g/hectare glyphosate), recorded on 10th day
[3] = 2X dosage (2120 g/hectare) sprayed to plants surviving 1X, recorded 10 days later
[4] = 5X dosage (5300 g/hectare) sprayed to plants surviving 2X, recorded 10 days later
[5] = 20X dosage (21200 g/hectare) sprayed to plants surviving 5X, recorded 10 days later
[6] = culture media containing 1 mM glyphosate

Molecule	% ++&+++ (percentage of plant having medium and high glyphosate resistance to the total number of plants observed) [1, 2] [%]	number of plants with resistance + (low glyphosate resistance) [1, 2]	number of plants with resistance ++ (medium glyphosate resistance) [1, 2]	number of plants with resistance +++ (high glyphosate resistance) [1, 2]	number of plants with resistance − (no glyphosate resistance) [1, 2]	% ++&+++ (percentage of plant having medium and high glyphosate resistance to the total number of plants observed) [1, 3] [%]	number of plants with resistance + (low glyphosate resistance) [1, 3]	number of plants with resistance ++ (medium glyphosate resistance) [1, 3]	number of plants with resistance +++ (high glyphosate resistance) [1, 3]	number of plants with resistance − (no glyphosate resistance) [1, 3]	survival of transformed rice seedlings (in words) [1]	% ++&+++ (percentage of plant having medium and high glyphosate resistance to the total number of plants observed) [1, 4] [%]	number of plants with resistance + (low glyphosate resistance) [1, 4]	number of plants with resistance ++ (medium glyphosate resistance) [1, 4]	number of plants with resistance +++ (high glyphosate resistance) [1, 4]	number of plants with resistance − (no glyphosate resistance) [1, 4]	% ++&+++ (percentage of plant having medium and high glyphosate resistance to the total number of plants observed) [1, 5] [%]	number of plants with resistance + (low glyphosate resistance) [1, 5]	number of plants with resistance ++ (medium glyphosate resistance) [1, 5]	number of plants with resistance +++ (high glyphosate resistance) [1, 5]	further results
Z1: maize EPSPS mutant I, SEQ ID NO: 12, containing only a single mutation K94(85)I (protein, Zea mays EPSPS mutant with mutation K94(85)I) MAVQAGAEEIVLQPIKEISGTVKLPGSKSLSNRILLLAALSEGTTVVDNLLNSEDVHYMLGALRTLGLSVEADKAAKRAVVVGCGGKFPVEDSIEEVQLFLGNAGTAMRPLTAAVTAAGGNATYVLDGVPRMRERPIGDLVVGLKQLGADVDCFLGTDCPPVRVNGIGGLPGGKVKLSGSISSQYLSALLMAAPLALGDVEIEIIDKLISIPYVEMTLRLMERFGVKAEHSDSWDRFYIKGGQKYKSPKNAYVEGDASSASYFLAGAAITGGTVTVEGCGTTSLQGDVKFAEVLEMMGAKVTWTETSVTVTGPPREPFGRKHLKAIDVNMNKMPDVAMTLAVVALFADGPTAIRDVASWRVKETERMVAIRTELTKLGASVEEGPDYCIITPPEKLNVTAIDTYDDHRMAMAFSLAACAEVPVTIRDPGCTRKTFPDYFDVLSTFVKN	10.5	1	2	0	16	0.0	3	0	0	16	some of the rice seedlings transformed by the maize EPSPS mutant Z1 survived	0.0	2	0	0	17	0.0	0	0	0	number of plants with resistance − (no glyphosate resistance) [1, 5]: 19; glyphosate resistance of transformed rice seedlings (in words) [1]: obviously superior to that of Z0; growth of transformed E. coli (double knockout E. coli; culture media containing 0 mM glyphosate and 1 mM glyphosate): obviously superior to that of control group (Z0); growth of transformed E. coli (double knockout E. coli; [6]): obviously superior to that of the control group (Z0)
Z0: wild-type maize EPSPS represented by SEQ ID NO: 10; control group of Example 6 (protein, Zea mays) MAVQAGAEEIVLQPIKEISGTVKLPGSKSLSNRILLLAALSEGTTVVDNLLNSEDVHYMLGALRTLGLSVEADKAAKRAVVVGCGGKFPVEDSKEEVQLFLGNAGTAMRPLTAAVTAAGGNATYVLDGVPRMRERPIGDLVVGLKQLGADVDCFLGTDCPPVRVNGIGGLPGGKVKLSGSISSQYLSALLMAAPLALGDVEIEIIDKLISIPYVEMTLRLMERFGVKAEHSDSWDRFYIKGGQKYKSPKNAYVEGDASSASYFLAGAAITGGTVTVEGCGTTSLQGDVKFAEVLEMMGAKVTWTETSVTVTGPPREPFGRKHLKAIDVNMNKMPDVAMTLAVVALFADGPTAIRDVASWRVKETERMVAIRTELTKLGASVEEGPDYCIITPPEKLNVTAIDTYDDHRMAMAFSLAACAEVPVTIRDPGCTRKTFPDYFDVLSTFVKN	0.0	4	0	0	16	0.0	0	0	0	20	no rice transformed by the wild-type maize EPSPS Z0 survived	0.0	0	0	0	20	0.0	0	0	0	number of plants with resistance − (no glyphosate resistance) [1, 5]: 20; glyphosate resistance of transformed rice seedlings (in words) [1]: no plant having medium or high glyphosate resistance; growth of transformed E. coli (double knockout E. coli; [6]): weak

Source: patent US11591580B2, “K85 mutation-containing plant EPSPS mutant, and encoding gene and application thereof” (GEVOTO LLC, priority 2017, dated 2023)
